B1: OR4K15 (parent)
chain: GUUAACGGUCAUAGGCCAUGGAAACUAGGAGCACCAUUUCGCUGCCAGUGAAGAAAUGAACAAAGAAAAUCUGGGCCAGGCAGGCAUCAAAAGAAAUAGUCUUGCGCUCAACCAGAAAGUCUGUAAUCAUUUUAAGGGUA

Variants of: B1
Test: self-cleavage, relative activity (ratio to wild type); higher = more cleavage; in vitro, sequencing; the parent is a self-cleaving ribozyme

Variant	self-cleavage
A56G C101A	0.12
A56G U132C	0.6
A56G A66U	0.92
A56U U87C	1.05
A59C U103C	0.57
A56G A117U	1.27
A59G A114C	0.03
A55U A117U	0.72
A55U A117G	1.77
A59G A95G	1.68
A56G A60G	0.63
G58A A126G	0.63
A56G G75C	0.19
U57A A96C	0.99
G58A A116G	0.29
A56G A94G	1.29
A56G U97C	0.4
U57C A135U	1.02
U57C A110G	0.1
U57C A62U	2.11
U57C A67G	0.83
U57C A129U	1.47
U57C A129G	1.43
A55G C107U	0.05

Variant	self-cleavage
A55G C107A	0.02
A56G C105U	0.12
A55G U127C	0.82
A56G U124A	0.78
U57G A91G	0.52
A56U A69U	0.67
G58U U127C	1.33
A55U A91G	1.73
U57G A140U	1.23
A56G G136A	1.69
A59G U103C	0.67
A56G C76U	0.14
A59G G106A	0.02
A59G A134G	0.34
A59G A134U	1.94
A59G A91G	0.8
A55G G58A	1.63
A56C A78U	0.35
A59U A67G	1.25
U57A A63U	1.38
U57C U133C	1.02
G58A U103C	1.09
A55U A116G	0.88
U57A A60G	1.19

Variant	self-cleavage
A55U U100A	0.82
A55U U100C	2.69
A55G U72G	0.25
U57C U72C	0.04
U57C U72A	0.18
A55G U108C	0.01
A59G A117G	1.71
A56C A129G	1.35
U57A U87C	0.92
A56C A82G	0.56
U57G U120C	1.11
U57G A110G	0.17
A56G U130C	1.63
A55G G137A	1.82
A56G A90U	1.83
A56G A90C	0.21
A55U A110G	0.23
A55U A94G	1.59
A55U A94U	0.43
U57A A64G	1.32
A55U A111C	0.06
U57C A63G	1.05
A59G U70C	0.84
A59G U70A	0.56

Variant	self-cleavage
A55U C109U	0.31
U57C U103G	0.02
U57C U103A	0.15
U57A	0.69
U57G	1.34
U57C	0.86
A56U U132C	1.11
A56G C109A	0.34
A55U A96G	1.61
U57C C101A	0.1
A59G C77U	1.7
U57A A89U	0.95
A56G U102C	1.67
A56G U102G	0.89
A59G A78U	0.28
A56G A89G	1.5
U57A U97C	1.78
A56G A69G	1.08
G58U A89U	1.46
U57C U130C	0.78
A56U A60G	0.43
U57C A86G	0.94
U57A U139C	0.25
A59G A118C	0.9

Variant	self-cleavage
U57C U127A	1.19
U57C U127C	0.66
A59G U130G	1.62
A59G U130C	1.52
A59C U124A	0.73
A55G U139A	1.49
A55G U139C	1.72
A55U A68G	1.44
A56U A96G	1.62
A59G U120C	0.97
A56G G99C	0.2
U57G C81U	0.29
U57A A111G	0.02
A56U U103A	0.25
G58U U100C	2.08
U57C U100A	0.4
U57C A78U	0.26
U57C A78G	0.23
A55U U127C	0.93
A55U U127A	2.63
A55U A59G	0.75
U57C U97C	1.09
A59G U108A	0.01
A59G U108C	0.02

Variant	self-cleavage
A56G A98G	0.57
A56G A98U	2.25
U57A U103C	0.22
U57C A94U	1.23
G58U A98G	0.34
A56G U72C	0.28
A56G U72A	0.26
A59C U102C	1.51
A59U A86U	1.92
A59U A86G	0.7
U57C A114G	0.12
A59G A89G	1.09
A55G G65A	1.07
A56G A68U	1.86
A56G A68G	1.51
A55G G99A	0.16
U57C U87A	0.98
G58A A62G	1.01
A55G U100A	0.48
A55G U100C	1.93
U57A U130C	0.81
A56G A64G	1.44
U57G A94G	1.41
A55G G136A	1.36

Variant	self-cleavage
A56G G83A	1.67
A59G C109G	0.03
A59G C105U	0.17
A56U A63G	2.61
A59G A69U	1.7
A59G A69C	0.6
A55U G137A	1.23
A56G A134G	1.2
A55G U102C	1.75
A56G A116U	0.56
G58A G106A	0.01
G58U U108C	0.02
U57C U139C	1.94
A56U A64G	2.32
A55G U130C	0.96
A55U U130C	1.13
U57A A62U	2.46
A56U U122A	1.31
A56G U120A	1.19
G58U A110G	0.11
A55G U122A	1.39
A55G U122G	2.18
A55G U122C	1.2
